Measurements from PMC2932838 (Biochemistry, 2010).
Where two headings read alike, the source gives them in different places.

Legend:
[1] = biological target: Fibrin made from surface-adsorbed or chip-immobilized human fibrinogen by thrombin (most probably monomeric) (human) (UniProt P02679); assay: ELISA
[2] = biological target: Recombinant Aα392–610 fragment (human fibrinogen αC-domain) (human); assay: ELISA
[3] = biological target: Recombinant Aα504–610 fragment (C-terminal sub-domain of the αC-domain) (human); assay: ELISA
[4] = biological target: T1, Plasminogen-depleted human fibrinogen (human, UniProt P02671-2 36-644; P02675 45-491; P02679 27-453); assay: ELISA
[5] = biological target: T1, Plasminogen-depleted human fibrinogen; assay: ELISA; remark: listed apart in the source
[6] = biological target: Fibrin made from surface-adsorbed or chip-immobilized human fibrinogen by thrombin (most probably monomeric) (human) (UniProt P02679); assay: ELISA; remark: listed apart in the source
[7] = biological target: Recombinant Aα392–610 fragment (human fibrinogen αC-domain) (human); assay: ELISA; remark: listed apart in the source
[8] = biological target: Fibrin made from surface-adsorbed or chip-immobilized human fibrinogen by thrombin (most probably monomeric) (human) (UniProt P02679); assay: ELISA; remark: listed apart in the source
[9] = biological target: Recombinant Aα392–610 fragment (human fibrinogen αC-domain) (human); assay: ELISA; remark: listed apart in the source
[10] = biological target: Fibrin made from surface-adsorbed or chip-immobilized human fibrinogen by thrombin (most probably monomeric) (human) (UniProt P02679); assay: ELISA; remark: listed apart in the source
[11] = biological target: Recombinant Aα221–610 fragment (human fibrinogen αC region) (human); assay: ELISA
[12] = biological target: Recombinant Aα504–610 fragment (C-terminal sub-domain of the αC-domain) (human); assay: ELISA; remark: listed apart in the source
[13] = biological target: Polymeric fibrin (cross-linked fibrin oligomers/polymers prepared on the sensor chip) (human) (UniProt P02679); assay: SPR
[14] = biological target: Polymeric fibrin (cross-linked fibrin oligomers/polymers prepared on the sensor chip) (human) (UniProt P02679); assay: SPR; remark: listed apart in the source
[15] = biological target: Fibrinogen D1 fragment (human); assay: ELISA
[16] = biological target: Fibrinogen D1 fragment (human); assay: ELISA; remark: listed apart in the source
[17] = biological target: T2, Human α2-antiplasmin, Asn-α2-AP form (human, UniProt P08697 40-491); assay: SPR
T2 sequence (looked up): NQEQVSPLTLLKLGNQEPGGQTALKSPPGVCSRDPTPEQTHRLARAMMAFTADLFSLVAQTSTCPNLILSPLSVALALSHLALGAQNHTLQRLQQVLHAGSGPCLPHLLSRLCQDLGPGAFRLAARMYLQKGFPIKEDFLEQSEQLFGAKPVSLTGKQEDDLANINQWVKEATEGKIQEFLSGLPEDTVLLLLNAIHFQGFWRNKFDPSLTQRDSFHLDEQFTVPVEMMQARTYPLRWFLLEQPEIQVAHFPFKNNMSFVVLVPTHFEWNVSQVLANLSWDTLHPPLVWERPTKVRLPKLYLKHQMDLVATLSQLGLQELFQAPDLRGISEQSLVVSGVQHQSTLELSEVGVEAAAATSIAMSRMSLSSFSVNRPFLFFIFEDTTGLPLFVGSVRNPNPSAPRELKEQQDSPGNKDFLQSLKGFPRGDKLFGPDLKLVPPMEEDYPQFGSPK

B1: Biotinylated human α2-antiplasmin (Asn-α2-AP form) (natural protein, UniProt P08697 40-491, looked up)
chain: NQEQVSPLTLLKLGNQEPGGQTALKSPPGVCSRDPTPEQTHRLARAMMAFTADLFSLVAQTSTCPNLILSPLSVALALSHLALGAQNHTLQRLQQVLHAGSGPCLPHLLSRLCQDLGPGAFRLAARMYLQKGFPIKEDFLEQSEQLFGAKPVSLTGKQEDDLANINQWVKEATEGKIQEFLSGLPEDTVLLLLNAIHFQGFWRNKFDPSLTQRDSFHLDEQFTVPVEMMQARTYPLRWFLLEQPEIQVAHFPFKNNMSFVVLVPTHFEWNVSQVLANLSWDTLHPPLVWERPTKVRLPKLYLKHQMDLVATLSQLGLQELFQAPDLRGISEQSLVVSGVQHQSTLELSEVGVEAAAATSIAMSRMSLSSFSVNRPFLFFIFEDTTGLPLFVGSVRNPNPSAPRELKEQQDSPGNKDFLQSLKGFPRGDKLFGPDLKLVPPMEEDYPQFGSPK
modifications: biotin (EZ-Link Sulfo-NHS-Biotinylation Kit), sites not stated
- Kd [1]: 101 nM
- Kd [2]: 141 nM
- Kd [3]: 130 nM
- Kd [4]: 179 nM
- Kd [5]: 102 nM
- Kd [6]: 25 nM
- Kd [7]: 111 nM
- Kd [8]: 109 nM
- Kd [9]: 157 nM
- Kd [10]: 102 nM
- Kd [11]: 131 nM
- Kd [12]: 123 nM

B2: Human α2-antiplasmin, Asn-α2-AP form (natural protein)
chain: NQEQVSPLTLLKLGNQEPGGQTALKSPPGVCSRDPTPEQTHRLARAMMAFTADLFSLVAQTSTCPNLILSPLSVALALSHLALGAQNHTLQRLQQVLHAGSGPCLPHLLSRLCQDLGPGAFRLAARMYLQKGFPIKEDFLEQSEQLFGAKPVSLTGKQEDDLANINQWVKEATEGKIQEFLSGLPEDTVLLLLNAIHFQGFWRNKFDPSLTQRDSFHLDEQFTVPVEMMQARTYPLRWFLLEQPEIQVAHFPFKNNMSFVVLVPTHFEWNVSQVLANLSWDTLHPPLVWERPTKVRLPKLYLKHQMDLVATLSQLGLQELFQAPDLRGISEQSLVVSGVQHQSTLELSEVGVEAAAATSIAMSRMSLSSFSVNRPFLFFIFEDTTGLPLFVGSVRNPNPSAPRELKEQQDSPGNKDFLQSLKGFPRGDKLFGPDLKLVPPMEEDYPQFGSPK
- Kd [13]: 68 nM
- Kd [14]: 45 nM

B3: Biotinylated human α2-antiplasmin (Asn-α2-AP form), P08697 40-491 (natural protein)
chain: NQEQVSPLTLLKLGNQEPGGQTALKSPPGVCSRDPTPEQTHRLARAMMAFTADLFSLVAQTSTCPNLILSPLSVALALSHLALGAQNHTLQRLQQVLHAGSGPCLPHLLSRLCQDLGPGAFRLAARMYLQKGFPIKEDFLEQSEQLFGAKPVSLTGKQEDDLANINQWVKEATEGKIQEFLSGLPEDTVLLLLNAIHFQGFWRNKFDPSLTQRDSFHLDEQFTVPVEMMQARTYPLRWFLLEQPEIQVAHFPFKNNMSFVVLVPTHFEWNVSQVLANLSWDTLHPPLVWERPTKVRLPKLYLKHQMDLVATLSQLGLQELFQAPDLRGISEQSLVVSGVQHQSTLELSEVGVEAAAATSIAMSRMSLSSFSVNRPFLFFIFEDTTGLPLFVGSVRNPNPSAPRELKEQQDSPGNKDFLQSLKGFPRGDKLFGPDLKLVPPMEEDYPQFGSPK
modifications: here or on the partner: biotin (EZ-Link Sulfo-NHS-Biotinylation Kit), sites not stated
- Kd [15]: 197 nM
- Kd [16]: 165 nM

B4: Fibrin-derived D-D:E complex (complex)
chain 1: VSEDLRSRIEVLKRKVIEKVQHIQLLQKNVRAQLVDMKRLEVDIDIKIRSCRGSCSRALAREVDLKDYEDQQKQLEQVIAKDLLPSR
chain 2: DNENVVNEYSSELEKHQLYIDETVNSNIPTNLRVLRSILENLRSKIQKLESDVSAQMEYCRTPCTVSCNIPVVSGKECEEIIRKGGETSEMYLIQPDSSVKPYRVYCDMNTENGGWTVIQNRQDGSVDFGRKWDPYKQGFGNVATNTDGKNYCGLPGEYWLGNDKISQLTRMGPTELLIEMEDWKGDKVKAHYGGFTVQNEANKYQISVNKYRGTAGNALMDGASQLMGENRTMTIHNGMFFSTYDRDNDGWLTSDPRKQCSKEDGGGWWYNRCHAANPNGRYYWGGQYTWDMAKHGTDDGVVWMNWKGSWYSMRKMSMKIRPFFPQQ
chain 3: KMLEEIMKYEASILTHDSSIRYLQEIYNSNNQKIVNLKEKVAQLEAQCQEPCKDTVQIHDITGKDCQDIANKGAKQSGLYFIKPLKANQQFLVYCEIDGSGNGWTVFQKRLDGSVDFKKNWIQYKEGFGHLSPTGTTEFWLGNEKIHLISTQSAIPYALRVELEDWNGRTSTADYAMFKVGPEADKYRLTYAYFAGGDAGDAFDGFDFGDDPSDKFFTSHNGMQFSTWDNDNDKFEGNCAEQDGSGWWMNKCHAGHLNGVYYQGGTYSKASTPNGYDNGIIWATWKTRWYSMKKTTMKIIPFNRLTIGEGQQHHLGGAK
chain 4: GPRVVERHQSACKDSDWPFCSDEDWNYKCPSGCRMKGLIDEVNQDFTNRINKLKNSLFEYQK
chain 5: GHRPLDKKREEAPSLRPAPPPISGGGYRARPAKAAATQKKVERKAPDAGGCLHADPDLGVLCPTGCQLQEALLQQERPIRNSVDELNNNVEAVSQTSSSSFQYMYLLK
chain 6: YVATRDNCCILDERFGSYCPTTCGIADFLSTYQTKVDKDLQSLEDILHQVENKTSEVKQLIK
modifications: covalent γ-γ cross-linking between the D regions
- Kd [17]: 1400 ± 400 nM
